The values below come from article PMC11362013, “Mechanism for controlled assembly of transcriptional condensates by Aire” (Nature Immunology, 2024).

In assay [1] the target is FAM-labeled H3 peptide (aa 1-21) with no modification (UniProt P68431). Kind of assay: fluorescence polarisation; 50 nM fluorescein-labeled H3 peptide, increasing PHD (0-900 μM) in SEC Buffer (25 mM HEPES pH 7.5, 100 mM NaCl, 5 mM BME), 25 °C; simple binding isotherm.
The target of assay [2] is FAM-labeled H3 peptide (aa 1-21) with K4me1 (UniProt P68431). The assay is described as above.
The target in assay [3] is T1, CBP TAZ2 (mouse, UniProt P45481 1764-1855).
T1 construct: the recombinant construct itself is described in the Supplementary Note; also called isolated CBP TAZ2; recombinant CBP TAZ2; source: E. coli, purified (details in the Supplementary Note)
T1 sequence (looked up): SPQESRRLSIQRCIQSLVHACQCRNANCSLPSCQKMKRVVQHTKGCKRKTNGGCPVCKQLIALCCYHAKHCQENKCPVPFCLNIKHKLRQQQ
The assay can be described thus: ITC; 760 μM mouse Aire CTT in the syringe, 19-76 μM TAZ2 in the cell; 20 °C; 20 mM HEPES pH 7.5, 100 mM NaCl, 1 mM dithiothreitol; two-site binding model. As to conditions: both partners purified.

Assay [4] has as its target T2, CBP TAZ2 (mouse, UniProt P45481 1764-1855).
T2 chain: T1 sequence (looked up)
The assay can be described thus: ITC; two-site model, second site. (In ITC the heat of successive injections is recorded.)

The Kd is the free concentration of one partner at which half of the binding sites on the other are occupied at equilibrium, for simple one-to-one binding. CHD4 PHD2 (domain or fragment): the Kd in assay [1] came to 45.3 µM.

Consider mouse Aire PHD1 (domain or fragment), for which the Kd was 23.2 µM in assay [2] and 5.25 µM in assay [1].

B1: mouse Aire CTT (aa 480-552) (domain or fragment, UniProt Q9Z0E3 480-552, looked up)
chain: TPTPGTPGEAVPTSGPRPAPGLAKVGDDSASHDPVLHRDDLESLLNEHSFDGILQWAIQSMSRPLAETPPFSS
notes: Aire (autoimmune regulator), mouse, C-terminal tail (CTT), residues 480-552; Used in NMR (15N13C-labelled) and ITC; whether tags were left on it is told only in the Supplementary Note; also called isolated CTT; source: E. coli, purified (details in the Supplementary Note)
For B1, in the assay with CBP TAZ2 [3], the “Kd of the high-affinity site (two-site model)” value worked out at 0.26 µM and the “Kd of the second, low-affinity site (two-site model)” value was 40 µM. Also, the Kd in the assay with CBP TAZ2 [4] stood at 39.7 µM.
